According to publication PMC4359245 (Oncotarget, 2014):

How the values were obtained:
proteinase K [1] = target: T1, proteinase K (Parengyodontium album, UniProt P06873); test: Proteinase K digestion of synthetic Aβ spiked into non-AD brain homogenate; details: spiked into non-AD brain homogenate with no detectable endogenous Aβ; P2 fraction; PK 0-50 μg/ml, 1 h, 37°C; western blot 6E10
[2] = pH 7.5
[3] = format: physicochemical; details: spiked into HuPrP-Tg mouse brain homogenate, RT 12 h, 10-60% sucrose step gradient, 200,000 x g, 1 h, 4°C, western blot 6E10; for Sucrose gradient fractions holding the majority of the peptide: 12 fractions from top
proteinase K [4] = target: T1, proteinase K; test: Proteinase K digestion of synthetic Aβ in lysis buffer, western blot; format: in vitro ADME; details: 1 h, 37°C, western blot 6E10; for Immunoreactivity with 6E10 after PK digestion (PK sensitivity): peptide in 1X PBS diluted in 1X lysis buffer, no DMSO, smallest amount of PK 5 μg/ml (range 0-50 μg/ml); for PK sensitivity of peptides dissolved in DMSO: 1X lysis buffer, PK 0-50 μg/ml
[5] = Negative-stain electron microscopy of synthetic Aβ with and without PK digestion; format: physicochemical; details: for Fibrils seen by electron microscopy after PK digestion: PK-treated peptide preparations, negative stain EM; for Fibril formation and morphology by electron microscopy: peptide in PBS, without PK, negative stain 2% uranylacetate, 80 kV
From the text: To further rule out this possibility, PK-treated peptides were also examined by EM.
The excess buffered-protein solution was removed, and negatively stained with 2% uranylacetate. Grids were then washed by touching a buffer and the excess buffer blotted off immediately using a Whatman filter paper. Grids were then air-dried and kept at room temperature. Negatively stained specimens were observed by a JEOL 1200EX electron microscope (JEOL, Tokyo, Japan) with 80 kV of electron acceleration voltage.

T1 sequence (P06873 106-384): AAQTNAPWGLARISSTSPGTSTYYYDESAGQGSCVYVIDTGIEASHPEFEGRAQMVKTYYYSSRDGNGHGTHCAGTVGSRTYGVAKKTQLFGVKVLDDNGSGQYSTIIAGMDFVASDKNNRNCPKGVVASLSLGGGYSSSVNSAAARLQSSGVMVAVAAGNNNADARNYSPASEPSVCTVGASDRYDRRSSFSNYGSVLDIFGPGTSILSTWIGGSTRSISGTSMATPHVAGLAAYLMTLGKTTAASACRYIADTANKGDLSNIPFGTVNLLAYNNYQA

| Substance | PK resistance of spiked peptide (PK concentration resisted) (proteinase K [1]) [µg/mL] | Detergent solubility: fraction in which the peptide is detected (S2 supernatant = soluble, P2 pellet = insoluble) [2] | Sucrose gradient fractions holding the majority of the peptide [3] | Large aggregates in bottom fractions 10-12 of the sucrose gradient [3] | Immunoreactivity with 6E10 after PK digestion (PK sensitivity) (proteinase K [4]) | PK sensitivity of peptides dissolved in DMSO (proteinase K [4]) | Fibrils seen by electron microscopy after PK digestion [5] | Fibril formation and morphology by electron microscopy [5] |
| --- | --- | --- | --- | --- | --- | --- | --- | --- |
| Aβ40: synthetic amyloid β peptide Aβ40 purchased from Sigma | ≥ 50 | only in the S2 but not in the P2 | between fractions 1 and 3 | detected in significant amounts in fractions 10 to 12 | No immunoreactivity | PK-sensitive | no fibrils or significant structures could be observed | relatively scarce but much longer |
| Aβ42: synthetic amyloid β peptide Aβ42 purchased from Sigma | ≥ 50 |  | between fractions 1 and 3 | smaller amounts | No immunoreactivity | PK-sensitive | no fibrils or significant structures could be observed | numerous but short fibrils |
